Measured values as given in patent publication US20250019432A1 (MABLYTICS, published 2025).

T1: S12-C2 (human, UniProt Q96PQ1 1-481)
T1 construct: also called siglec12 C2set2 region
T1 sequence: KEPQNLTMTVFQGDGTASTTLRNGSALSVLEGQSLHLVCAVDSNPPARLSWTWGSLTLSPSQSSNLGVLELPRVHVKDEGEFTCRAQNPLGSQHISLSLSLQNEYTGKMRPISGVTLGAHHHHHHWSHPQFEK


Key:
[1] = target: T2, siglec7 with C-terminal FLAG tag on Expi 293 cells (UniProt Q9Y286 19-467, limits assumed); experiment: flow cytometry, transfected Expi 293, 500 nM
T2 construct: whole, on cells; not shown: C-terminal FLAG tag
Protocol: (§1) To verify anti-siglec12 antibody specificity for native siglec12 (over other siglec family members), cross-reactivity analysis was carried out using flow cytometry. Expi 293 cells were grown in 6 well plates and transfected with […] of pcDNA3.1 expression vectors (Thermo Fisher Scientific, Waltham, MA) with inserts encoding siglec6, siglec7, siglec8, siglec9, or siglec12 proteins with C-terminal FLAG tags. The following day, Expi293 enhancers were added. On day 2 (post-transfection) cells were washed in PBSB and aliquoted into plastic V-bottomed plates at a density of 5×10⁵ cells/well. An aliquot was also used for Western blot analysis to confirm siglec expression (using anti-FLAG antibody as described below). Plated cells were incubated with anti-siglec12 antibodies at a concentration of 500 nM or siglec-specific control antibody (all from R&D Systems, Minneapolis, MN; Siglec6-specific clone 767329; Siglec8-specific clone 837535; Siglec9-specific clone 191240) at a concentration of 12.5 μg/mL for 2 hours on ice. Cells were then washed with ice cold PBSB and incubated with PE-goat anti mouse H/L chain secondary antibody (1:400 in PBSB) for 30 minutes on ice. Cells were again washed with ice cold PBSB and analyzed for surface staining based on fluorescence intensity determined by GUAVA® […]™ Plus flow cytometer.

[2] = target: T3, siglec9 with C-terminal FLAG tag on Expi 293 cells (UniProt Q9Y336 18-463, limits assumed); experiment: flow cytometry, transfected Expi 293, 500 nM
T3 construct: whole, on cells; not shown: C-terminal FLAG tag
Protocol: as §1

[3] = target: T4, siglec8 with C-terminal FLAG tag on Expi 293 cells (UniProt Q9NYZ4 17-499, limits assumed); experiment: flow cytometry, transfected Expi 293, 500 nM
T4 construct: whole, on cells; not shown: C-terminal FLAG tag
Protocol: as §1

S12-V1 = target: T5, S12-V1 (human); experiment: ELISA
T5 construct: also called siglec12 Vset1 region
Protocol: (§2) For ELISA assays, purified subdomain proteins were passively immobilized on assay plates and incubated with media from hybridoma cultures described above before detection of bound anti-subdomain antibodies using anti-mouse (heavy/light) secondary antibody conjugated to horseradish peroxidase (HRP). Levels of bound secondary antibody were assessed by applying colorimetric substrate and measuring absorbance values at 450 nm. Absorbance values greater than 0.07 indicate specific binding.

S12-C2 = target: T1, S12-C2; experiment: ELISA
Protocol: as §2

[4] = target: T6, S7ecto-Fc (human siglec7 ectodomain fused with human Fc domain) (human, UniProt Q9Y286 19-353); experiment: ELISA
T6 construct: extracellular domain; bought from R&D Systems; not shown: human Fc domain
Protocol: (§3) Fusion proteins of human siglec7 or siglec9 ectodomains fused with human Fc domains (R&D Systems, Minneapolis, MN) were immobilized on assay plates and incubated with media from hybridoma cultures described above before detection of bound antibodies using anti-mouse (heavy/light) secondary antibody conjugated to HRP. Levels of bound secondary antibody were assessed by applying colorimetric substrate and measuring absorbance values at 450 nm.

[5] = target: T7, S9ecto-Fc (human siglec9 ectodomain fused with human Fc domain) (human, UniProt Q9Y336 18-348); experiment: ELISA
T7 construct: extracellular domain; bought from R&D Systems; not shown: human Fc domain
Protocol: as §3

S12-V2C1 = target: T8, S12-V2C1 (human, UniProt Q96PQ1 1-358); experiment: ELISA
T8 construct: also called siglec12 Vset2-C2set1 region
Protocol: as §2

[6] = target: T9, S12-Fc (human siglec12 extracellular domain fused with mouse Fc2a fragment) (human; mouse); experiment: ELISA
T9 construct: also called S12ecto-mouse Fc2a
Protocol: After 6 weeks of immunization, serum samples from immunized mice were screened for the presence of siglec12-specific immunoglobulins. Screening was carried out by enzyme-linked immunosorbent assay (ELISA) and by fluorescence-associated cell sorting (FACS). ELISA assays utilized assay plates coated with S12-Fc target antigen for immobilization of siglec12-specific immunoglobulins from mouse serum samples, which were detected using anti-mouse light chain (kappa and lambda) secondary antibody conjugated to horseradish peroxidase (HRP). The level of bound secondary antibody was assessed by incubation with colorimetric peroxidase substrate followed by measurement of light absorbance intensity values obtained at 450 nm. For FACS analysis, serum samples were combined with U937 cells (Fc receptor blocked with 10% human serum), an AML cell line that overexpresses human siglec12. Immunoglobulin binding to siglec12 associated with these cells is a strong indicator of potential immunotherapeutic use to treat AML. Anti-mouse heavy chain fluorescent detection reagents were used to label cell surface-bound serum immunoglobulins before FACS analysis. Lymph node and spleen cells from the three best responders were harvested and fused with P3X63Ag8.653 mouse myeloma cells. After 10-14 days of selection, the resulting hybridoma library was single-cell cloned into 96-well culture plates using FACS. After 10-14 days of single cell expansion, all monoclonal hybridoma culture supernatants were screened for S12-Fc binding immunoglobulins by ELISA. Supernatant positive for S12-Fc-binding immunoglobulins was further screened by FACS for immunoglobulin binding to U937 cells. The Table includes an antibody identification number (ID #) assigned to siglec12-binding antibodies associated with each hybridoma culture. For ELISA results, background adjusted mean absorbance values obtained at 450 nm are shown. For FACS analysis, Flow Fluor MFI is the mean fluorescence intensity from flow cytometry assay (background MFI=100) and flow % gated is the percentage of cells having greater than background fluorescence.

[7] = target: T6, S7ecto-Fc (human siglec7 ectodomain …); experiment: ELISA; remark: listed apart in the source

T5 sequence (chain, as listed by the source limits assumed): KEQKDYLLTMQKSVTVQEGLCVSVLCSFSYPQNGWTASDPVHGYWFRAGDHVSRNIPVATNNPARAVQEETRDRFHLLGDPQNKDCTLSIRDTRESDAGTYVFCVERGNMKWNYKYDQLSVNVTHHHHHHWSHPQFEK
T4 sequence (Q9NYZ4 17-499 limits assumed): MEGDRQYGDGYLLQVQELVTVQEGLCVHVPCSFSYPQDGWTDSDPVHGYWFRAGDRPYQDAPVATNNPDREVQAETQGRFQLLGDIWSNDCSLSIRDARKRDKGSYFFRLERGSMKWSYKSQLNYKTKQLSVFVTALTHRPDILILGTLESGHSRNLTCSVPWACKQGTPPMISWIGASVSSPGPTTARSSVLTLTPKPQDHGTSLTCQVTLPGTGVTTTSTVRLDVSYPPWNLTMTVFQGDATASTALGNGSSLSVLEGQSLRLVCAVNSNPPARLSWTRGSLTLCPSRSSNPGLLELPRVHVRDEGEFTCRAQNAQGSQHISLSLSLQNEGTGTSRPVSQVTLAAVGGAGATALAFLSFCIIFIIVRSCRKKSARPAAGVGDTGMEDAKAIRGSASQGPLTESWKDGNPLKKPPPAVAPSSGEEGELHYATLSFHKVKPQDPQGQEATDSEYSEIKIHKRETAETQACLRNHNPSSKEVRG
T6 sequence (Q9Y286 19-353): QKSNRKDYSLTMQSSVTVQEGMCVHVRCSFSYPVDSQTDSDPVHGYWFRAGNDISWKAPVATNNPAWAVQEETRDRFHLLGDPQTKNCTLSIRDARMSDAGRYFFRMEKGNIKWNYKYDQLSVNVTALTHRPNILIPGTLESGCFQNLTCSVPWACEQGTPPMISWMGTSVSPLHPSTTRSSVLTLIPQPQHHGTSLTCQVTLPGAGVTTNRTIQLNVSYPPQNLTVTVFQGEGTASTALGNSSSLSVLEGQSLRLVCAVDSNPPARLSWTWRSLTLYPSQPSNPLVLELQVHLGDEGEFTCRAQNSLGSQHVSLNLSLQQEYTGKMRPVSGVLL
T9 sequence (chain, as listed by the source limits assumed): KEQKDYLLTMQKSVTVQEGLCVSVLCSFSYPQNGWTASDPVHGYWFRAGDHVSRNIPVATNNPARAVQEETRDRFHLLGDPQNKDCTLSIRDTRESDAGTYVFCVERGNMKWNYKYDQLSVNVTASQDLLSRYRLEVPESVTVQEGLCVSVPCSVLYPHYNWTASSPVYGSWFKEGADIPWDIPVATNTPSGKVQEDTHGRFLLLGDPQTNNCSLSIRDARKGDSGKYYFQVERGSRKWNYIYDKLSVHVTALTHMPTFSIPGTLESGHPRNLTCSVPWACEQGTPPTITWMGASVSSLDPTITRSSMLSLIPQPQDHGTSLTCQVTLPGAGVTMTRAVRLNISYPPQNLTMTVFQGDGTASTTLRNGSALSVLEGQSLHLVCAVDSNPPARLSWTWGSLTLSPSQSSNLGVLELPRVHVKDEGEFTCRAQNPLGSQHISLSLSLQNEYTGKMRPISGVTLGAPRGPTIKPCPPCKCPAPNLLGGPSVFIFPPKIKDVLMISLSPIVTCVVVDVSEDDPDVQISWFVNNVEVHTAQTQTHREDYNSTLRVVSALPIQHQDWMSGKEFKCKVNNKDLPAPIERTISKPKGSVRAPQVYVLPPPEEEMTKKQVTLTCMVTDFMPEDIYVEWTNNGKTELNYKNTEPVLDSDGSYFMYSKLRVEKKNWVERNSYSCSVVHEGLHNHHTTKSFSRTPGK
T7 sequence (Q9Y336 18-348): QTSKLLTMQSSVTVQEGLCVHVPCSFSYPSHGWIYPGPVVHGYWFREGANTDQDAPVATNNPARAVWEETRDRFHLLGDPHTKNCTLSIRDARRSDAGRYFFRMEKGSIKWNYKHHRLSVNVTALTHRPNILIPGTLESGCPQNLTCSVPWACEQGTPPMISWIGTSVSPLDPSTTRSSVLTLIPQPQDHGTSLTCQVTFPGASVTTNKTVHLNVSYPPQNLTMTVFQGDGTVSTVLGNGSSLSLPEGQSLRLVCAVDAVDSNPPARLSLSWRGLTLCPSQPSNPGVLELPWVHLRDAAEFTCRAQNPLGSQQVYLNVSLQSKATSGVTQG
T2 sequence (Q9Y286 19-467 limits assumed): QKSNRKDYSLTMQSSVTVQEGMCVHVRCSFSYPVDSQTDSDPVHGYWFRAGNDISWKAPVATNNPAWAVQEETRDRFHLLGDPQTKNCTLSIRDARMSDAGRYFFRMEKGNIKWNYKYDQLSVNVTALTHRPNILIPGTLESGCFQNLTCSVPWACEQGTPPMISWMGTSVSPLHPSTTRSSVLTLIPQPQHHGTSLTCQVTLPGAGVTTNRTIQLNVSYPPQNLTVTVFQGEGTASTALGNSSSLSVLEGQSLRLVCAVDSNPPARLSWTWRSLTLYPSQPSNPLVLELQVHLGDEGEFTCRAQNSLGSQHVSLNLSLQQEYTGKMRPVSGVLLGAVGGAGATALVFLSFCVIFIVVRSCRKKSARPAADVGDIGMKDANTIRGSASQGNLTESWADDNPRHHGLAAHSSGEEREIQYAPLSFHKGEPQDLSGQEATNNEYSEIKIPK
T3 sequence (Q9Y336 18-463 limits assumed): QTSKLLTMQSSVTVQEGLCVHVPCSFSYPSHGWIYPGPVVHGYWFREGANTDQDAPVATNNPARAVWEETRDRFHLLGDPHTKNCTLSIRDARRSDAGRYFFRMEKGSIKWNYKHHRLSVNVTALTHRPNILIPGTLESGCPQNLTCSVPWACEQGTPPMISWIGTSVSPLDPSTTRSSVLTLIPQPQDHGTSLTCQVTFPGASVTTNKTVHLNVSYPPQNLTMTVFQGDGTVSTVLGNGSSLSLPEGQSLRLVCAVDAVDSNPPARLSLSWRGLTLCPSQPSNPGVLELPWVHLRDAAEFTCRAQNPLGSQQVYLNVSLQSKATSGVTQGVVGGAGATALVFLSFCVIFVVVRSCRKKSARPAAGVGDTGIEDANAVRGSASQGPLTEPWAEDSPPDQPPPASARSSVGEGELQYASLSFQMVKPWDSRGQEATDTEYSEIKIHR
T8 sequence (Q96PQ1 other isoform, or with tags, fused parts or gaps limits assumed): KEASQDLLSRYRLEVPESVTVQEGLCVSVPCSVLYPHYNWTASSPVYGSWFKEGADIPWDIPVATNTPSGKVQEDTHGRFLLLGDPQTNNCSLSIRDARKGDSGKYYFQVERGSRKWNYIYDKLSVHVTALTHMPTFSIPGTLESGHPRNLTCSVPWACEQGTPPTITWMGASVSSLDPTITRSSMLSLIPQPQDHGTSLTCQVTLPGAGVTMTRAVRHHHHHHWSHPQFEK

Row | MFI [1] | MFI [2] | MFI [3] | binding result (S12-V1) | binding result (S12-C2) | A450 [4] | A450 [5] | binding result (S12-V2C1) | A450 [6] | A450 (S12-V2C1) | A450 (S12-C2) | A450 (S12-V1) | Binder | binding result [7]
1 | – | – | – | no binding (tested: A450 0.07) | – | 0.06 | 0.05 | no binding (tested: A450 0.07) | – | – | – | – | S0103 (antibody, V domains shown, human variable domains with mouse constant regions (Trianni mouse hybridoma)) VH: QVQLVQSGAEVKKPGASVKVSCKASGYTFTSYDINWVRQATGQGLEWMGWMNPNSGNTGYAQNFQGRVTMTRDTSVNTAYMELSSLRSEDTAVYYCARGGPNLVRGVIIRDAFDFWGQGTMVTVSS VL: EIVMTQSPATLSVSPGERATLSCRASQSVSNSFAWYQQKPGQAPRLLIYGAFTRATGIPARFSGSGSGIEFTLTISSLQSEDFAVYYCQQYKTWPLTFGGGTKVEIKR | –
2 | – | – | 7 | no binding (tested: A450 0.07) | – | 0.07 | 0.06 | – | 3.34 | 1.65 | 0.08 | – | S0102 (antibody, V domains shown, human variable domains with mouse constant regions (Trianni mouse hybridoma); also called S0102 anti-Siglec12 antibody) VH: QVQLVESGGGVVQPGRSLRLSCAASGFTFSSYGMHWVRQAPGKGLEWVAVISYDGSNKYYTDSVKGRFTISRDNSKNTLYLQMNSLRAEDTAVYYCARGGYYGSGSLDYWGQGTLVTVSS VL: not shown | –
3 | 2.8 | 1.3 | 6.3 | no binding (tested: A450 0.07) | no binding (tested: A450 0.07) | 0.07 | 0.08 | – | 2.64 | 0.62 | – | – | S0057 (antibody, V domains shown, human variable domains with mouse constant regions (Trianni mouse hybridoma); also called S0057 whole antibody) VH: QGQLVQSGAEVKKPGASVKVSCKASGYTFNNYGISWVRQAPGQGLEWMGWISAYNGFTRSTQKFQGRVTLTTDTSTSTAHMELRSLRSDDTAAYYCARDGGDGFDPWGQGTLVTVSS VL: EIVLTQSPATLSLSPGERATLSCRASQSVSSFLAWYQQKPGQAPRLLIFDASNRATGIPARFSGSGSGTDFTLTISSLEPEDFAVYYCQQRSNWITFGQGTRLEIKRA | no binding (tested: A450>0.09 (so in the source))

Continued, binder first:

Row | Binder | MFI [1] | MFI [2] | MFI [3] | binding result (S12-V1) | binding result (S12-C2) | A450 [4] | A450 [5] | binding result (S12-V2C1) | A450 [6] | A450 (S12-V2C1) | A450 (S12-C2) | A450 (S12-V1) | binding result [7]
4 | S0023 (antibody, V domains shown, human variable domains with mouse constant regions (Trianni mouse hybridoma)) VH: EVQLLESGGGLVQPGGSLRLSCAASGFTFSTFAMSWVRQAPGKGLEWVSTISGGGDSTYYADSVKGRFTISRDNSKNMMSLQMNSLRAVDTAVYYCVKGGGDEYFYYGMDVWGQGTTVTVSS VL: DIQMTQSPSSLSASVGDRVTITCRASQGIRNDLGWYQQKPGKAPKRLIYSASSLQSGVPSRFSGSGSGTEFTLTISSLQPEDFATYYCLQHNSYPYTFGQGTPLDIKR | 2.1 | 3 | 2.8 | no binding (tested: A450 0.07) | no binding (tested: A450 0.07) | 0.05 | 0.05 | – | – | – | – | – | –
5 | S0040 (antibody, V domains shown, human variable domains with mouse constant regions (Trianni mouse hybridoma)) VH: QVQLVQSGAEVKKPGASVKVSCKASGYTFTSYDINWVRQATGQGLEWMGWMNPNSGNTGYAQNFQGRVTMTRNTSINTAYMELSSLRSEDTAVYYCTRGGPTLVRGVIIRDAFDFWGQGTMVTVSS VL: EIVMTQSPATLSVSPGERATLSCRASQSVSNSFAWYQQKPGQAPRLLIYGAFTRATGIPARFSGSGSGTEFTLTISSLQSEDFAVYYCQQYKTWPLTFGGGTKVEIKR | – | – | – | no binding (tested: A450 0.07) | – | 0.05 | 0.05 | no binding (tested: A450 0.07) | – | – | – | – | –
6 | S0042 (antibody, V domains shown, human variable domains with mouse constant regions (Trianni mouse hybridoma)) VH: QVQLVQSGTEVKKPGASVKVSCKVSGYTLSDLSIHWVRQAPGKGLEWMGGFEPEDGEIIYAQKFQGRVIMTEDTSTDTAYMKLSSLRSEDTAVYYCATDKRYFDWLLSGFDYWGQGTLVTVSS VL: DIQLTQSPSFLSASVGDRVTITCRASQGISSYLAWYQQKPGKAPKLLIFAASTLQSGVPSRFSGSGSGTEFTLTISSLQPEDFATYYCQRLHSYPRTFGQGTKVEIKRA | 3.9 | 2.3 | 5.3 | – | no binding (tested: A450 0.07) | 0.06 | 0.05 | no binding (tested: A450 0.07) | 1.99 | – | – | 0.1 | –
